The data set can be described thus: total protein half-life in vivo (active degradation + dilution); higher = more stable protein.
Where [1] appears, read: E. coli NCM3722 delta-clpP delta-lon delta-hslV, growth: N-lim chemostat, doubling time 6 h.
[2] abbreviates: E. coli NCM3722 delta-clpP, growth: N-lim chemostat, doubling time 6 h.
[3] abbreviates: E. coli NCM3722 delta-hslV, growth: N-lim chemostat, doubling time 6 h.
The mark [4] stands for this setting: E. coli NCM3722 delta-lon, growth: N-lim chemostat, doubling time 6 h.
The mark [5] stands for this setting: E. coli NCM3722 delta-smpB, growth: N-lim chemostat, doubling time 6 h.
Where [6] appears, read: wild type E. coli NCM3722, growth: C-lim chemostat, doubling time 3 h.
Setting [7] is: wild type E. coli NCM3722, growth: C-lim chemostat, doubling time 6 h.
Setting [8] is: wild type E. coli NCM3722, growth: C-lim chemostat, doubling time 12 h.
Setting [9] is: wild type E. coli NCM3722, growth: N-lim chemostat, doubling time 6 h.
Setting [10] is: wild type E. coli NCM3722, growth: N-lim chemostat, doubling time 12 h.
The mark [11] stands for this setting: wild type E. coli NCM3722, growth: P-lim chemostat, doubling time 6 h.
[12] abbreviates: wild type E. coli NCM3722, growth: P-lim chemostat, doubling time 12 h.

± gives the standard deviation of the averaged measurements. Bounds are passed on as bounds.

For “MEKAKQVTWRLLAAGVCLLTVSSVARADSLDEQRSRYAQIKQAWDNRQMDVVEQMMPGLKDYPLYPYLEYRQITDDLMNQPAVTVTNFVRANPTLPPARTLQSRFVNELARREDWRGLLAFSPEKPGTTEAQCNYYYAKWNTGQSEEAWQGAKELWLTGKSQPNACDKLFSVWRASGKQDPLAYLERIRLAMKAGNTGLVTVLAGQMPADYQTIASAIISLANNPNTVLTFARTTGATDFTRQMAAVAFASVARQDAENARLMIPSLAQAQQLNEDQIQELRDIVAWRLMGNDVTDEQAKWRDDAIMRSQSTSLIERRVRMALGTGDRRGLNTWLARLPMEAKEKDEWRYWQADLLLERGREAEAKEILHQLMQQRGFYPMVAAQRIGEEYELKIDKAPQNVDSALTQGPEMARVRELMYWNLDNTARSEWANLVKSKSKTEQAQLARYAFNNQWWDLSVQATIAGKLWDHLEERFPLAYNDLFKRYTSGKEIPQSYAMAIARQESAWNPKVKSPVGASGLMQIMPGTATHTVKMFSIPGYSSPGQLLDPETNINIGTSYLQYVYQQFGNNRIFSSAAYNAGPGRVRTWLGNSAGRIDAVAFVESIPFSETRGYVKNVLAYDAYYRYFMGDKPTLMSATEWGRRY [P0AGC3]”, the “total protein half-life in vivo” value runs as follows: under setting [1], 5.924 ± 0.022 h; under setting [2], 6.7 ± 0.89 h; under setting [3], 6.326 ± 0.06 h; under setting [4], 6.53 ± 0.35 h; under setting [5], 6.054 ± 0.043 h; under setting [6], 3.16 ± 0.12 h. Further, the “total protein half-life in vivo” value reads like this: under setting [7], 6.34 ± 0.25 h; under setting [8], 12 ± 2.2 h; under setting [9], 6.29 ± 0.41 h; under setting [10], 12.2 ± 0.23 h; under setting [11], 6.07 ± 0.19 h; under setting [12], 12.3 ± 0.39 h.
In the case of “MKPIFSRGPSLQIRLILAVLVALGIIIADSRLGTFSQIRTYMDTAVSPFYFVSNAPRELLDGVSQTLASRDQLELENRALRQELLLKNSELLMLGQYKQENARLRELLGSPLRQDEQKMVTQVISTVNDPYSDQVVIDKGSVNGVYEGQPVISDKGVVGQVVAVAKLTSRVLLICDATHALPIQVLRNDIRVIAAGNGCTDDLQLEHLPANTDIRVGDVLVTSGLGGRFPEGYPVAVVSSVKLDTQRAYTVIQARPTAGLQRLRYLLLLWGADRNGANPMTPEEVHRVANERLMQMMPQVLPSPDAMGPKLPEPATGIAQPTPQQPATGNAATAPAAPTQPAANRSPQRATPPQSGAQPPARAPGGQ”, the “total protein half-life in vivo” value under setting [1] turned out to be 5.092 ± 0.007 h; the “total protein half-life in vivo” value under setting [2] stood at 4.62 ± 0.051 h; the “total protein half-life in vivo” value under setting [3] turned out to be 4.54 ± 0.24 h; the “total protein half-life in vivo” value under setting [5] was determined as 4.76 ± 0.74 h; the “total protein half-life in vivo” value under setting [6] is 2.85 ± 0.07 h; the “total protein half-life in vivo” value under setting [7] stood at 5.57 ± 1.1 h. Also, the “total protein half-life in vivo” value under setting [8] was determined as 10.25 ± 0.089 h; the “total protein half-life in vivo” value under setting [9] came to 4.21 ± 0.1 h; the “total protein half-life in vivo” value under setting [10] amounted to 8.66 ± 0.23 h; the “total protein half-life in vivo” value under setting [11] worked out at 4.98 ± 0.25 h; the “total protein half-life in vivo” value under setting [12] amounted to 10.5 ± 0.18 h.
In the case of “MNEVVNSGVMNIASLVVSVVVLLIGLILWFFINRASSRTNEQIELLEALLDQQKRQNALLRRLCEANEPEKADKKTVESQKSVEDEDIIRLVAER”, the “total protein half-life in vivo” value by setting is: under setting [1], 3.97 ± 0.73 h; under setting [2], 6.38 h; under setting [4], 1.45 h; under setting [5], 1.31 h; under setting [6], 2.6 h; under setting [9], 1.78 h. In addition, the “total protein half-life in vivo” value runs as follows: under setting [11], 2.17 h; under setting [12], 3.4 ± 1.1 h.
For “MKVSVPGMPVTLLNMSKNDIYKMVSGDKMDVKMNIFQRLWETLRHLFWSDKQTEAYKLLFNFVNNQTGNINASEYFTGAINENEREKFINSLELFNKLKTCAKNPDELVAKGNMRWVAQTFGDIELSVTFFIEKNKICTQTLQLHKGQGNLGVDLRKAYLPGVDMRDCYLGKKTMKGSNDILYERPGWNANLGVLPRTVLPRTVLTRTVLTWTVLP”, under setting [1], the “total protein half-life in vivo” value turned out to be 4.07 h.
As for “MRLAPLYRNALLLTGLLLSGIAAVQAADWPRQITDSRGTHTLESQPQRIVSTSVTLTGSLLAIDAPVIASGATTPNNRVADDQGFLRQWSKVAKERKLQRLYIGEPSAEAVAAQMPDLILISATGGDSALALYDQLSTIAPTLIINYDDKSWQSLLTQLGEITGHEKQAAERIAQFDKQLAAAKEQIKLPPQPVTAIVYTAAAHSANLWTPESAQGQMLEQLGFTLAKLPAGLNASQSQGKRHDIIQLGGENLAAGLNGESLFLFAGDQKDADAIYANPLLAHLPAVQNKQVYALGTETFRLDYYSAMQVLDRLKALF [P0AEL6]”, the “total protein half-life in vivo” value was 3.63 ± 0.44 h under setting [1]; 4.68 ± 0.25 h under setting [2]; 5.13 h under setting [3]; 5.5 ± 0.95 h under setting [5]; above 4 h under setting [6]; 5.29 ± 0.068 h under setting [7]. The “total protein half-life in vivo” value worked out at 11.5 ± 3.5 h under setting [8], 5.62 ± 0.55 h under setting [9], 10.4 ± 3 h under setting [10] and 6.51 ± 0.24 h under setting [11].
“MSRLSPVNQARWARFRHNRRGYWSLWIFLVLFGLSLCSELIANDKPLLVRYDGSWYFPLLKNYSESDFGGPLASQADYQDPWLKQRLENNGWVLWAPIRFGATSINFATNKPFPSPPSRQNWLGTDANGGDVLARILYGTRISVLFGLMLTLCSSVMGVLAGALQGYYGGKVDLWGQRFIEVWSGMPTLFLIILLSSVVQPNFWWLLAITVLFGWMSLVGVVRAEFLRTRNFDYIRAAQALGVSDRSIILRHMLPNAMVATLTFLPFILCSSITTLTSLDFLGFGLPLGSPSLGELLLQGKNNLQAPWLGITAFLSVAILLSLLIFIGEAVRDAFDPNKAV”: the “total protein half-life in vivo” value worked out at 6 h under setting [1]; 6.1 h under setting [2]; 5.43 ± 0.61 h under setting [5]; 6.44 h under setting [9]; 13.2 h under setting [12].
As for “MDAKQTRQGVLLALAAYFIWGIAPAYFKLIYYVPADEILTHRVIWSFFFMVVLMSICRQWSYLKTLIQTPQKIFMLAVSAVLIGGNWLLFIWAVNNHHMLEASLGYFINPLVNIVLGMIFLGERFRRMQWLAVILAICGVLVQLWTFGSLPIIALGLAFSFAFYGLVRKKIAVEAQTGMLIETMWLLPVAAIYLFAIADSSTSHMGQNPMSLNLLLIAAGIVTTVPLLCFTAAATRLRLSTLGFFQYIGPTLMFLLAVTFYGEKPGADKMVTFAFIWVALAIFVMDAIYTQRRTSK”, the “total protein half-life in vivo” value under setting [10] was determined as 7.87 h.
For “MKKSITTLDLNLLLCLQLLMQERSVTKAAKRINVTPSAVSKSLAKLRAWFDDPLFVNSPLGLSPTPLMVSMEQNLAEWMQMSNLLLDKPHHQTPRGLKFELAAESPLMMIMLNALSKQIYQRYPQATIKLRNWDYDSLDAITRGEVDIGFSGRESHPRSRELLSSLPLAIDYEVLFSDVPCVWLRKDHPALHQTWNLDTFLRYPHISICWEQSDTWALDNVLQELGRERTIAMSLPEFEQSLFMAAQPDNLLLATAPRYCQYYNQLHQLPLVALPLPFDESQQKKLEVPFTLLWHKRNSHNPKIVWLRETIKNLYASMA”, the “total protein half-life in vivo” value worked out at 5.87 ± 0.7 h under setting [1]; 5.16 ± 1 h under setting [2]; 5.91 ± 0.94 h under setting [3]; 6.37 ± 0.5 h under setting [4]; 4.519 ± 0.029 h under setting [5]; 4.74 h under setting [9]. Besides, the “total protein half-life in vivo” value by setting is: under setting [10], 12.2 h; under setting [12], 11.2 ± 0.6 h.
In the case of “MPDAVQAPYPAYRPEPNMQTITIAPPKRSWFSLLSWAVVLAVLVVSWQGAEMAPLTLIKDGGNMATFAADFFPPDFSQWQDYLTEMAVTLQIAVWGTALAVVLSIPFGLMSAENLVPWWVYQPVRRLMDACRAINEMVFAMLFVVAVGLGPFAGVLACWRCLSTPPACSPSCFPKRWKRLSPARWKAFAPPVPTSSKRSSTACCHR [P0DP69]”, the “total protein half-life in vivo” value by setting is: under setting [11], 0.274 ± 0.32 h; under setting [12], 0.661 ± 0.64 h.
For the sequence “MDQIRLTHLRQLEAESIHIIREVAAEFSNPVMLYSIGKDSSVMLHLARKAFYPGTLPFPLLHVDTGWKFREMYEFRDRTAKAYGCELLVHKNPEGVAMGINPFVHGSAKHTDIMKTEGLKQALNKYGFDAAFGGARRDEEKSRAKERIYSFRDRFHRWDPKNQRPELWHNYNGQINKGESIRVFPLSNWTEQDIWQYIWLENIDIVPLYLAAERPVLERDGMLMMIDDNRIDLQPGEVIKKRMVRFRTLGCWPLTGAVESNAQTLPEIIEEMLVSTTSERQGRVIDRDQAGSMELKKRQGYF”, the “total protein half-life in vivo” value by setting is: under setting [1], 5.8 ± 1.9 h; under setting [2], 3.7 ± 0.045 h; under setting [3], 1.49 ± 0.57 h; under setting [4], 1.35 ± 0.17 h; under setting [5], 1.29 ± 0.12 h; under setting [6], 1.58 ± 0.062 h. Besides, the “total protein half-life in vivo” value is, setting by setting: under setting [7], 1.94 ± 0.21 h; under setting [8], 2.88 ± 0.15 h; under setting [9], 1.206 ± 0.0024 h; under setting [10], 1.44 ± 0.29 h; under setting [11], 1.46 ± 0.23 h; under setting [12], 2.57 ± 0.54 h.

The values are drawn from the supplement of paper PMC11246515.
